The values that follow come from patent publication US20260022170A1 (ADAPTAM THERAPEUTICS S L, published 2026).

The target in one assay is Siglec-3 (UniProt P20138 18-259, limits assumed). In words: BLI, antibody in Fab format. How it is done: (§1) BLI experiments were performed to assess binding of the generated anti-Siglec-9 antibodies to Siglec family members Siglec-3, Siglec-6, Siglec-7, Siglec-8, Siglec-9, and Siglec-10. The antibodies were tested in Fab format at 250 nM.
The target of another assay is Siglec-6 (UniProt O43699 27-347, limits assumed). Nature of the assay: BLI, antibody in Fab format. How it is done: as §1
Siglec-6, sequence (O43699 27-347 limits assumed): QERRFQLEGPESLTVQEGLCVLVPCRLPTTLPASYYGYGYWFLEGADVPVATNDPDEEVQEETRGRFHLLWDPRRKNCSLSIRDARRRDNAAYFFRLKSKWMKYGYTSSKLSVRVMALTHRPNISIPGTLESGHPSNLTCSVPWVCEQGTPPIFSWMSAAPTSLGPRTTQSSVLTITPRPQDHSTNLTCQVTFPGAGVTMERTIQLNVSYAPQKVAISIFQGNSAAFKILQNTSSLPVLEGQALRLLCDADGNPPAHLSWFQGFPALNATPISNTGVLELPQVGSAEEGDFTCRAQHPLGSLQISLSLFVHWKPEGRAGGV
Background: In BLI a coated tip is dipped into the sample, and binding shifts an interference pattern.

For another assay, the target named is Siglec-7 (BLI) (UniProt Q9Y286 19-353, limits assumed). In words: BLI, antibody in Fab format. How it is done: as §1
Siglec-7 (BLI), sequence (Q9Y286 19-353 limits assumed): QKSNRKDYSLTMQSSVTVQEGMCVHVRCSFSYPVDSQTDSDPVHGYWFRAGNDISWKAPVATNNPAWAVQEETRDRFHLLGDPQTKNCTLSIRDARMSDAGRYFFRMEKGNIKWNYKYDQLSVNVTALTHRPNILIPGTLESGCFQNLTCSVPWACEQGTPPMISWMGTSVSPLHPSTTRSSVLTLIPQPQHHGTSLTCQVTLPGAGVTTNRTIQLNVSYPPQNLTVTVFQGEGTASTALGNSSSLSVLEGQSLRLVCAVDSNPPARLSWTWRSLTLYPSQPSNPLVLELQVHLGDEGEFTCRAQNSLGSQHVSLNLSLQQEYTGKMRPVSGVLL
Another assay deals with Siglec-8 (UniProt Q9NYZ4 17-363, limits assumed). In words: BLI, antibody in Fab format. How it is done: as §1
Siglec-8, sequence (Q9NYZ4 17-363 limits assumed): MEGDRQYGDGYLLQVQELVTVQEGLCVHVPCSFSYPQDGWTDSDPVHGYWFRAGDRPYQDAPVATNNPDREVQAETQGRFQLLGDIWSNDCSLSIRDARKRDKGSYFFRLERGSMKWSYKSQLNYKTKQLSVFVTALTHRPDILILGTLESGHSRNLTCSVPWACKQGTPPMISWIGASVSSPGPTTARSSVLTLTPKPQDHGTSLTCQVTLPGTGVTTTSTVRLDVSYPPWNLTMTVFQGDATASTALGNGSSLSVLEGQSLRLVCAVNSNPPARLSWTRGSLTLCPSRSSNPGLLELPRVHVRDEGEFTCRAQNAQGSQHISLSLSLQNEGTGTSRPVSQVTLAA
For another assay, the target named is T1, Siglec-10 (UniProt Q96LC7 17-546, limits assumed).
T1 sequence (looked up): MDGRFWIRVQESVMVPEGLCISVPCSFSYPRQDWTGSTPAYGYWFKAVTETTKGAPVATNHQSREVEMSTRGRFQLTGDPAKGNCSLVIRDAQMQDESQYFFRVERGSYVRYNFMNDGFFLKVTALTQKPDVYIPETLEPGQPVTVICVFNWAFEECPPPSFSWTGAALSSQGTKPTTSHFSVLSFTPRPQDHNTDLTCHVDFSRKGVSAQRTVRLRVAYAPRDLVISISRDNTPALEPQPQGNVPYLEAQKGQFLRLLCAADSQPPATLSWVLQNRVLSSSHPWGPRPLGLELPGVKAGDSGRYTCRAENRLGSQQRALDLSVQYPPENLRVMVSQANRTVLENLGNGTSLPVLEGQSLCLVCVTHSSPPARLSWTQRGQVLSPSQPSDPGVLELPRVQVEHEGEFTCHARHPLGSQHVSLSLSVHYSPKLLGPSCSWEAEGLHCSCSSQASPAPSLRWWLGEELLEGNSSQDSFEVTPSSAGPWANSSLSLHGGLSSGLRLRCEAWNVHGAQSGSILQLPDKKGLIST
Nature of the assay: BLI, antibody in Fab format. How it is done:
as §1

Assay [1] concerns the target T2, human Siglec-9 protein (recombinant; construct not stated) (human, UniProt Q9Y336 18-344, limits assumed).
T2 construct: also called recombinant Siglec-9
Nature of the assay: BLI, antibody in Fab format at 250 nM. How it is done:
as §1

The target of assay [2] is T3, recombinant Siglec-9 (SinoBiological, 30109-H03H) (human, UniProt Q9Y336 18-348).
T3 construct: also called ectodomain of Siglec-9; recombinant human Siglec-9 protein
T3 sequence (Q9Y336 18-348 limits assumed): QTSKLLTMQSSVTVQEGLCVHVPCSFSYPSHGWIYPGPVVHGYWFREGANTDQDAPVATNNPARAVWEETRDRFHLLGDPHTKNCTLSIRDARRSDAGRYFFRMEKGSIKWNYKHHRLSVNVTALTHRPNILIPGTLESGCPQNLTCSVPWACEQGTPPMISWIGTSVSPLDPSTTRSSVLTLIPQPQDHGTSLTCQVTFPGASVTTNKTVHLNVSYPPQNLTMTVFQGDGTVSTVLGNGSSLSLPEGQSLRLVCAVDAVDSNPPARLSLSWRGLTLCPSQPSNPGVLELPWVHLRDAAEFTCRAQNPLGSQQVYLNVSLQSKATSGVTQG
In words: ELISA on coated ectodomains. How it is done:
(§2) Next, the binding of anti-Siglec-9 monoclonal antibodies ED2D5, C1B613, BC3G5, and DH1A11 to the ectodomains of Siglec-9, Siglec-7, and a control was assessed using ELISA. An anti-Siglec-7 antibody control and isotype control were utilized. […] Antibody clones huCB6B3, mAbA, 68D4, and Tf73 also produced similar EC50 values.
(§3) To perform the ELISA experiments, 96-well plates were coated with recombinant Siglec-9 (SinoBiological, 30109-H03H) (100 μL) at 2 μg/mL in carbonate/bicarbonate buffer pH 9.6 overnight at 4° C., and washed with 250 μL of PBST (PBS, 0.1% Tween-20). Plates were blocked with blocking buffer (3% BSA in PBS) for 1 hour at room temperature, washed, and 100 μL of serially diluted anti-Siglec-9 antibodies-test antibodies, benchmarks, or control-starting at 66.64 nM (4-fold serial dilutions in PBST with 1% w/v non-fat milk), were added for 2 hours at RT. The plates were washed and incubated at room temperature with an anti-mouse IgG HRP detection antibody (1:5000, 1-hour, Anti-mouse IgG-HRP), followed by three washes of 250 μL of PBST, and two more with 400 μL of PBS, before the addition of 100 μL of TMB (Thermo Scientific) for 2-6 minutes. The reaction was stopped with 50 μL of Stop Solution (Thermo Scientific). The OD was measured at 450 nm in a multimode plate reader (Victor Nivo, PerkinElmer). OD values were plotted against antibody concentration, and data were analyzed using GraphPad Prism software.
Background: An ELISA detects its analyte on a solid surface through an enzyme-linked reagent.

The next assay has as its target T4, ectodomain of Siglec-7 (UniProt Q9Y286 19-353, limits assumed).
T4 construct: extracellular domain
Nature of the assay: ELISA on coated ectodomains. How it is done:
as §2, §3

Assay [3] deals with T2, human Siglec-9 protein (recombinant; …). Nature of the assay: ELISA on recombinant Siglec-9. How it is done:
as §2
as §3, with “The reaction was stopped with 50 μL of Stop Solution (Thermo Scientific).” left out

Assay [4] has the same target. In words: ELISA, human Siglec-9 protein coated at 2 µg/mL, antibody titrated 0.4 pM to 400 nM. How it is done:
The binding of the different IgG CB6B3 antibodies was analyzed via ELISA using human Siglec-9 protein as immobilized antigen (2 μg/mL). The different antibodies were titrated from 0.4 pM to 400 nM (FIG. 9). Human Siglec-9 protein was diluted in PBS pH 7.4 and coated overnight at 4° C. Remaining binding sites were blocked with PBS, 2% skimmed milk power (MPBS) for 2 hours. Bound murine IgG CB6B3 antibody was detected with an HRP-conjugated anti-mouse Fc secondary antibody (Sigma Aldrich A554; 1:5,000 dilution). All antibodies were diluted in MPBS. Incubation times were 1 hour each. TMB/H2O2 was used as substrate. […] Thus, the humanised antibodies retained antigen specificity and bound with similar potency to purified antigen in ELISA.

T2 sequence (Q9Y336 18-344 limits assumed): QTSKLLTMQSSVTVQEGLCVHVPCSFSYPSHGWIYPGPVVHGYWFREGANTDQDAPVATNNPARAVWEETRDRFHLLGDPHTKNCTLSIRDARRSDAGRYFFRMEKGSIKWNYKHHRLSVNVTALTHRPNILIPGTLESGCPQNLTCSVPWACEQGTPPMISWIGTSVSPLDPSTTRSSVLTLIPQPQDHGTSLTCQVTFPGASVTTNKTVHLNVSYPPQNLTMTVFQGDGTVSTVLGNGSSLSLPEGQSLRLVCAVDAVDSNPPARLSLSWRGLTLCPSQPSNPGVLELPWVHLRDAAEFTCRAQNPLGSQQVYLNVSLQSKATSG
T4 sequence (Q9Y286 19-353 limits assumed): as the sequence (Q9Y286 19-353 limits assumed) above
Siglec-3, sequence (P20138 18-259 limits assumed): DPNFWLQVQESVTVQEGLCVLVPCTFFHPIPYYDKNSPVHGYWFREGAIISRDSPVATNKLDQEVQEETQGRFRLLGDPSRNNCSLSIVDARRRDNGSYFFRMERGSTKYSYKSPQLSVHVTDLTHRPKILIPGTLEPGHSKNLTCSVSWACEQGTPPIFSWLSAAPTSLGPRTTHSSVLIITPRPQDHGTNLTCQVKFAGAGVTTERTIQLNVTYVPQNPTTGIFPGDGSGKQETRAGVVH

B1: ED2D5 in Fab format (Fab, V domains shown)
VH: EVQLVESGGGLVKPGGSLKLSCAASGFTFSDYYMYWVRQTPEKRLEWVATISDGGSDTYYPDNMKGRFTISRDNAKNNLYLQMSSLKSEDTAMYYCTRDPDYDDGRFAYWGQGTLVTVSA
VL: DIVMTQSHKFMSTSVGDRVSITCKASQDVGTVVAWYQQKSGQSPKLLIYWSSTRHTGVPDRFTGSGSGTDFTLTISNVQSEDLADYFCQQYIDYPLSFGAGTKLELK
notes: Tested in Fab format in BLI
With B1, the binding result with Siglec-3 is reported as “no binding (tested: 250 nM)”; in the assay with Siglec-6, “no binding (tested: 250 nM)”; with Siglec-7 (BLI), “no binding (tested: 250 nM)”; in the assay with Siglec-8 it was “no binding (tested: 250 nM)”; with Siglec-10 it was “no binding (tested: 250 nM)”; in assay [1], “binds”.

B2: anti-Siglec-9 monoclonal antibody clone ED2D5 (antibody, V domains shown)
VH: EVQLVESGGGLVKPGGSLKLSCAASGFTFSDYYMYWVRQTPEKRLEWVATISDGGSDTYYPDNMKGRFTISRDNAKNNLYLQMSSLKSEDTAMYYCTRDPDYDDGRFAYWGQGTLVTVSA
VL: DIVMTQSHKFMSTSVGDRVSITCKASQDVGTVVAWYQQKSGQSPKLLIYWSSTRHTGVPDRFTGSGSGTDFTLTISNVQSEDLADYFCQQYIDYPLSFGAGTKLELK
notes: Mouse hybridoma monoclonal antibody
For B2, the figures for the binding result (in assay [2]; with ectodomain of Siglec-7) were “binds” and “no binding”, respectively.

B3: anti-Siglec-9 monoclonal antibody clone CB6B3 (parental mouse antibody) (antibody, V domains shown)
VH: EVQLQQSGAEVVRPGALVKLSCKAAGFNIKDYFIHWVKQRPEQGLEWIGLIDPENDNTMYDPRFQVKASLTADTSSNTAYLQLSRLTSEDAAVYYCASTVVARSFDYWGQGTTLTVSS
VL: SIVMTQTPKFLLVSAGDRVTITCKASQSVSNDVAWYQQKSGQSPKLLIYYTSNRYTGVPDRFTGSGYGTDFTFTISTVQAEDLAVYFCQQDFRSPFTFGAGTKLELK
notes: Mouse hybridoma IgG; also called moIgG CB6B3; mouse IgG CB6B3
B3: the values for the binding result (in assay [2]; with ectodomain of Siglec-7; in assay [3]) were “binds”, “no binding” and “binds”, respectively.

B4: chimeric IgG1 CB6B3 (cIgG CB6B3) (antibody, V domains shown)
VH: EVQLQQSGAEVVRPGALVKLSCKAAGFNIKDYFIHWVKQRPEQGLEWIGLIDPENDNTMYDPRFQVKASLTADTSSNTAYLQLSRLTSEDAAVYYCASTVVARSFDYWGQGTTLTVSS
VL: SIVMTQTPKFLLVSAGDRVTITCKASQSVSNDVAWYQQKSGQSPKLLIYYTSNRYTGVPDRFTGSGYGTDFTFTISTVQAEDLAVYFCQQDFRSPFTFGAGTKLELK
notes: Chimeric IgG1 of CB6B3 made in HEK293-6E cells; also called cIgG CB6Bb
For B4, the binding result in assay [4] is “binds”.

B5: CB6B3 in Fab format (Fab, V domains shown)
VH: EVQLQQSGAEVVRPGALVKLSCKAAGFNIKDYFIHWVKQRPEQGLEWIGLIDPENDNTMYDPRFQVKASLTADTSSNTAYLQLSRLTSEDAAVYYCASTVVARSFDYWGQGTTLTVSS
VL: SIVMTQTPKFLLVSAGDRVTITCKASQSVSNDVAWYQQKSGQSPKLLIYYTSNRYTGVPDRFTGSGYGTDFTFTISTVQAEDLAVYFCQQDFRSPFTFGAGTKLELK
notes: Tested in Fab format in BLI; printed as 'C1B613', read as CB6B3; also called C1B613
B5: the binding result with Siglec-3, with Siglec-6, with Siglec-7 (BLI), with Siglec-8 and with Siglec-10 was “no binding (tested: 250 nM)” throughout.
